For series [1], the target named is SETMAR DNA-binding domain, residues 329 to 440 (C381R) (I359M) (L423M) (human). Description: crystal structure; SETMAR DBD 329-440 (C381R, I359M, L423M) with brominated 25-mer TIR DNA duplex, protein:DNA 1:1.2, 50 mM Hepes pH 7.5, 150 mM NaCl, 1 mM DTT; hanging drops at 20 °C, 0.1 M magnesium formate, 15% PEG3350; 2.37 Å.
A further series concerns the target T1, SETMAR DBD C381R (Homo sapiens, UniProt Q53H47 342-453, C394R).
T1 sequence: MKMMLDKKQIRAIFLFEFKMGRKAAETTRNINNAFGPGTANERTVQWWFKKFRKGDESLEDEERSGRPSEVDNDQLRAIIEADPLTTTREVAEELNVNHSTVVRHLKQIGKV
Nature of the series: X-ray crystallography; 2.37 A; FA and competition: 50 mM Hepes pH 7.0, 150 mM NaCl, 1 mM DTT; temperature not stated. Crystals: 50 mM Hepes pH 7.5, 150 mM NaCl, 1 mM DTT; 0.1 M Mg formate, 15% PEG3350, 20 C. The conditions noted are these: protein: recombinant; tags: none (His-SUMO removed); chain copies: 2; 25 bp, 3' overhang 1 nt on each strand (A and T).

Series [2] concerns the target T2, SETMAR full-length WT (Homo sapiens, UniProt Q53H47 14-684).
T2 sequence: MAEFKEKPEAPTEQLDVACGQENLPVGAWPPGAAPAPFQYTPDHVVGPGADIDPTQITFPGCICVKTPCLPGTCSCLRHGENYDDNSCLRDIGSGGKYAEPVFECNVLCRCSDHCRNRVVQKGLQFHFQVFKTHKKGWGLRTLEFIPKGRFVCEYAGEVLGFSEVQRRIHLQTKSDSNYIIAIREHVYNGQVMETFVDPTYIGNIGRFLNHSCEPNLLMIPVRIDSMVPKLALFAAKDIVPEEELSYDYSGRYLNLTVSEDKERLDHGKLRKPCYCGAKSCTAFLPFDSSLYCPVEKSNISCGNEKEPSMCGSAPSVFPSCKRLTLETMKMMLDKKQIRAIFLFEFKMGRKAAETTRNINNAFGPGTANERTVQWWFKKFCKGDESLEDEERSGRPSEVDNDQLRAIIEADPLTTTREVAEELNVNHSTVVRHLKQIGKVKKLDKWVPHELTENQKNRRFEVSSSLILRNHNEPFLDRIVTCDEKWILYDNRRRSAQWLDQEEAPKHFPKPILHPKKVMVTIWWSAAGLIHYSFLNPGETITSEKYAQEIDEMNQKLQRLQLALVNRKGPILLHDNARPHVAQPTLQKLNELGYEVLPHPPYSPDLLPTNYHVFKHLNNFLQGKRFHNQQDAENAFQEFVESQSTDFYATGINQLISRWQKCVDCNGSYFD
Nature of the series: competition (fluorescence anisotropy); 300 nM protein, 20 nM probe; FA and competition: 50 mM Hepes pH 7.0, 150 mM NaCl, 1 mM DTT; temperature not stated. Crystals: 50 mM Hepes pH 7.5, 150 mM NaCl, 1 mM DTT; 0.1 M Mg formate, 15% PEG3350, 20 C. The conditions noted are these: protein: recombinant; chain copies: 2; blunt.

Series [3] addresses T3, SETMAR DBD C381R I359M L423M (SeMet) (Homo sapiens, UniProt Q53H47 342-453, I372M;C394R;L436M).
T3 sequence: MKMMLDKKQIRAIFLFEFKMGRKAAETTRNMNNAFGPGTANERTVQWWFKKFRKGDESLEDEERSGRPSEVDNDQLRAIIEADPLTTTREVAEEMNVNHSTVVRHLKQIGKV
Nature of the series: X-ray crystallography; Se-SAD phasing, 2.66 A; FA and competition: 50 mM Hepes pH 7.0, 150 mM NaCl, 1 mM DTT; temperature not stated. Crystals: 50 mM Hepes pH 7.5, 150 mM NaCl, 1 mM DTT; 0.1 M Mg formate, 15% PEG3350, 20 C. To be noted: protein: recombinant; tags: none (His-SUMO removed); chain copies: 2; 25 bp, 3' overhang 1 nt on each strand (A and T).

Series [4] deals with T2, SETMAR full-length WT. Nature of the series: fluorescence anisotropy; 20 nM probe; FA and competition: 50 mM Hepes pH 7.0, 150 mM NaCl, 1 mM DTT; temperature not stated. Crystals: 50 mM Hepes pH 7.5, 150 mM NaCl, 1 mM DTT; 0.1 M Mg formate, 15% PEG3350, 20 C. To be noted: protein: recombinant; chain copies: 2; label: 5' rhodamine (C6 amino) on strand 2; blunt.
The target of the next series is T4, SETMAR R432A (Homo sapiens, UniProt Q53H47 14-684, R445A).
T4 sequence: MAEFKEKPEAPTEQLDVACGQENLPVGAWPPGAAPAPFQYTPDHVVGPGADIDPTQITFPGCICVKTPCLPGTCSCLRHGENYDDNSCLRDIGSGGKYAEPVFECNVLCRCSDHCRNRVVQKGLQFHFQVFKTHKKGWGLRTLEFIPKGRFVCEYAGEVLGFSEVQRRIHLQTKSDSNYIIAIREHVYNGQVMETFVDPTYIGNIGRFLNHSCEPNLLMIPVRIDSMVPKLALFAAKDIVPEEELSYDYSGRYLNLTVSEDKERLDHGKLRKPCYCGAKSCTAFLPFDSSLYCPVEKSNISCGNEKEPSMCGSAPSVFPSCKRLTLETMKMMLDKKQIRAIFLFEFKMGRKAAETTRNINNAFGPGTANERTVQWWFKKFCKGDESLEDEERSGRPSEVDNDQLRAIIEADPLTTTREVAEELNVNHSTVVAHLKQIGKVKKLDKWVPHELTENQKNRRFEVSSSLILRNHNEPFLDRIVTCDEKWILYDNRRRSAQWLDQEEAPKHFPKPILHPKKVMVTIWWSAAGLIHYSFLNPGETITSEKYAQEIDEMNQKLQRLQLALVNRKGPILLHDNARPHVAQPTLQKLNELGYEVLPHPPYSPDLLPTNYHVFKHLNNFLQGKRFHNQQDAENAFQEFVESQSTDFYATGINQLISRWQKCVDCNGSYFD
Nature of the series: fluorescence anisotropy; 10 nM probe; FA and competition: 50 mM Hepes pH 7.0, 150 mM NaCl, 1 mM DTT; temperature not stated. Crystals: 50 mM Hepes pH 7.5, 150 mM NaCl, 1 mM DTT; 0.1 M Mg formate, 15% PEG3350, 20 C. To be noted: protein: recombinant; chain copies: 2; label: 5' rhodamine (C6 amino) on strand 2; blunt.

Another series concerns the target T5, SETMAR R371A (Homo sapiens, UniProt Q53H47 14-684, R384A).
T5 sequence: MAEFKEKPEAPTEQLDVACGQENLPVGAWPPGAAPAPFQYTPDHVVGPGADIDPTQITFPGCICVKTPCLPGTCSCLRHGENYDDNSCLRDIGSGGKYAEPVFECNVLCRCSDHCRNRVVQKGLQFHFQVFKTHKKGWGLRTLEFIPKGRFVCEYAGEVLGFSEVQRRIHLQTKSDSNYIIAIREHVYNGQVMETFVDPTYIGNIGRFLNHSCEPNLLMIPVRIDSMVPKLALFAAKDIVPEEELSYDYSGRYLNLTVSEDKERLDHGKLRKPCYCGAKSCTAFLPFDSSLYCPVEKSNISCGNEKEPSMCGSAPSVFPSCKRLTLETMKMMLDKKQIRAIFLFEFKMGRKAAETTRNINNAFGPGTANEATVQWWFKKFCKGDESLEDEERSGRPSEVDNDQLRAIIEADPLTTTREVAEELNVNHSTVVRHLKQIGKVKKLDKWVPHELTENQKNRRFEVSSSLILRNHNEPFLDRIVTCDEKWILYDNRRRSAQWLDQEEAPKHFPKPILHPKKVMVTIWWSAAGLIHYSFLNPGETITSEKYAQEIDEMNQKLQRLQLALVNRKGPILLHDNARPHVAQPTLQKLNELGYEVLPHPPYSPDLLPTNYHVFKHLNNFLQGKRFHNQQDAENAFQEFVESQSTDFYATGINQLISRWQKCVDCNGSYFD
Described as above. To be noted: protein: recombinant; chain copies: 2; label: 5' rhodamine (C6 amino) on strand 2; blunt.

In the next series the target is T6, SETMAR S428A (Homo sapiens, UniProt Q53H47 14-684, S441A).
T6 sequence: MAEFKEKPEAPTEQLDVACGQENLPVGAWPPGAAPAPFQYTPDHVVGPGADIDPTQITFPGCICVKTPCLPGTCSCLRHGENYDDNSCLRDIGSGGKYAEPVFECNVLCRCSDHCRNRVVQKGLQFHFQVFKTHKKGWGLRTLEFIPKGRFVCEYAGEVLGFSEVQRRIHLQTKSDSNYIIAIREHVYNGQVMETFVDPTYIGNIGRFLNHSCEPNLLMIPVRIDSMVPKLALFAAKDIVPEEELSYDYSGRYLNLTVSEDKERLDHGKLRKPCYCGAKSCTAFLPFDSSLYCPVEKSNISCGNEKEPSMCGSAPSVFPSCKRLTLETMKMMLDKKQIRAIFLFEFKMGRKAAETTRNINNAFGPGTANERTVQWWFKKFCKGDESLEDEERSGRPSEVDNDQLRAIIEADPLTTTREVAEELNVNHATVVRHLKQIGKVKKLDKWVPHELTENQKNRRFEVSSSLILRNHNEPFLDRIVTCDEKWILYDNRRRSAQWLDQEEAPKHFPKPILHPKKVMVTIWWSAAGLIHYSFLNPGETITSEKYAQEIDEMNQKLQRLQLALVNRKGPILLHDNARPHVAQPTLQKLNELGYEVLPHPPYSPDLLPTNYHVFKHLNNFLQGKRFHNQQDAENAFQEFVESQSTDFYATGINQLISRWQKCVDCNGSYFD
The description is as above. To be noted: protein: recombinant; chain copies: 2; label: 5' rhodamine (C6 amino) on strand 2; blunt.

The target in series [5] is T2, SETMAR full-length WT. Description: fluorescence anisotropy; 10 nM probe; mutant comparison series; FA and competition: 50 mM Hepes pH 7.0, 150 mM NaCl, 1 mM DTT; temperature not stated. Crystals: 50 mM Hepes pH 7.5, 150 mM NaCl, 1 mM DTT; 0.1 M Mg formate, 15% PEG3350, 20 C. The conditions noted are these: protein: recombinant; chain copies: 2; label: 5' rhodamine (C6 amino) on strand 2; blunt.

As to “SETMAR DNA-binding domain, residues 329 to 440 (C381R) (I359M) (L423M) (domain or fragment)”, the stoichiometry N in [1] was 2.

B1: TIR crystallization duplex (dsDNA)
DNA 1: GGTTGGTGCAAAAGTAATTGCGGTTA
DNA 2: AACCGCAATTACTTTTGCACCAACCT
Consider B1, for which the binding result in the series with SETMAR DBD C381R is given as “binds”.

B2: Hsmar1 TIR without sequence-specific binding sites (dsDNA)
DNA 1: TTAGGTTAATATAAAAGTAATTGTGGTT
DNA 2: AACCACAATTACTTTTATATTAACCTAA
Turning to B2, the binding result with SETMAR full-length WT [2] was “no binding”.

B3: Mos1 TIR (dsDNA)
DNA 1: TCAGGTGTACAAGTATGAAATGTCGTTT
DNA 2: AAACGACATTTCATACTTGTACACCTGA
As to B3, in the series with SETMAR full-length WT [2], the binding result is reported as “no binding”.

B4: BrdU-substituted TIR crystallization duplex (dsDNA)
DNA 1: GGTTGGTGCAAAAGTAATTGCGGTTA
DNA 2: AACCGCAATTACTTTTGCACCAACCT
modifications: 5-bromodeoxyuridine replacing underlined Ts (positions not visible in text)
Take B4: the binding result in series [3] is listed as “binds”.

B5: rhodamine Hsmar1 TIR probe (dsDNA)
DNA 1: TTAGGTTGGTGCAAAAGTAATTGCGGTT
DNA 2: AACCGCAATTACTTTTGCACCAACCTAA
Turning to B5, the Kd was found to be 53 ± 4 nM with SETMAR full-length WT [4]; 302 ± 47 nM with SETMAR R432A; 521 ± 65 nM with SETMAR R371A; 485 ± 58 nM in the series with SETMAR S428A; 42 ± 5 nM with SETMAR full-length WT [5].

(Values after publication PMC9062482, “Structural and genome-wide analyses suggest that transposon-derived protein SETMAR alters transcription and splicing”.)
